Data as given in publication PMC4146615.

Assays:
[1] = molecular target: T1, SoxR (Streptomyces coelicolor) (UniProt Q9S255); assay: EMSA; settings: EMSA: 10 mM Tris-HCl pH 8, 75 mM KCl, 0.1 mM DTT, 10% glycerol, 2 mM MgCl2, 0.1 ug poly(dI)-poly(dC), 2 mM dAMP, 30 uL, 6 fmol probe, SoxR 0-20 nM, 15 min …
T1 sequence: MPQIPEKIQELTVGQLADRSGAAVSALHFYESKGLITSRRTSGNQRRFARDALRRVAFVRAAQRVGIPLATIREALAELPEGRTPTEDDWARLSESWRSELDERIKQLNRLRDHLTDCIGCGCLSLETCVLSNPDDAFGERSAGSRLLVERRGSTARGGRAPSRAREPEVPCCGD

[2] = molecular target: T1, SoxR (Streptomyces coelicolor); assay: competition; settings: EMSA: 10 mM Tris-HCl pH 8, 75 mM KCl, 0.1 mM DTT, 10% glycerol, 2 mM MgCl2, 0.1 ug poly(dI)-poly(dC), 2 mM dAMP, 30 uL, 6 fmol probe, SoxR 0-20 nM, 15 min …

| Substance | Kd [1] | binding [2] | K_half [1] |
| --- | --- | --- | --- |
| SCO0321 upstream probe | > 20 nM |  |  |
| ecaD (SCO4266) promoter probe | 5 nM |  |  |
| SCO1177 upstream probe | > 20 nM |  |  |
| GACAGTCGTAGGCGGTTCCGCCCCTCCATACGTCACCCCTTGCCGACCGGCCCGACTCCACCGCGGACGACGGACGAGCCTTGACCTCGACCGGACTTGAGGTTGGAGGCTGGGCGGGATGTCGCCTCCAGTGAAGGGTGCTGCTCATGCATGCGATCCACGTGGCCTCGTTCGGTGCTCCGGACGTGCTGAGCCTGGTC (double strand) [SCO0320ext promoter probe] |  | binds | binds |
